This is an account of results in patent publication US20220362303A1.

The assay addresses trypsin (T9253, Merck Life Sciences) (UniProt P00760). The assay is described as follows: cell-based or functional assay.
T9253 sequence (P00760 24-246): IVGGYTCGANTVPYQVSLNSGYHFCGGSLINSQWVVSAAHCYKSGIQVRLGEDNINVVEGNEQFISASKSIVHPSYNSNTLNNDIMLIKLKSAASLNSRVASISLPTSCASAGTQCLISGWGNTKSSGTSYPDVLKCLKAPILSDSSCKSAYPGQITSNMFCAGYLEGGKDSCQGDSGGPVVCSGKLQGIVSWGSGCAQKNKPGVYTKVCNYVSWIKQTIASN

As to calcium caseinate (C16), the µg trypsin inhibited (BAPNA trypsin inhibition assay, casein at 0.1 mg/ml) (µg trypsin inhibited) was 0.34 and the µg trypsin inhibited by 1 mg sample (BAPNA trypsin inhibition assay) (µg trypsin inhibited by 1 mg sample) was 3.24.
“Ovomucoid (Sigma, USA) (from UniProt P01005 25-210)” displayed a µg trypsin inhibited by 1 mg sample (BAPNA trypsin inhibition assay) (µg trypsin inhibited by 1 mg sample) of 703.
For “Human EGF (Peprotech, New Jersey, USA) (from UniProt P01133 971-1023) (ligand)”, the µg trypsin inhibited by 1 mg sample (BAPNA trypsin inhibition assay) (µg trypsin inhibited by 1 mg sample) stood at 1.43.
Substance “soya bean trypsin inhibitor (SBTI, Roche, Calif., USA) (from UniProt P01070 25-205)” displayed a µg trypsin inhibited by 1 mg sample (BAPNA trypsin inhibition assay) (µg trypsin inhibited by 1 mg sample) of 838.
